Substitutions are numbered along the chain they refer to. Names and notes keep the numbering of the source.
Columns and labels:
[1] = molecular target: His-tagged Importin β (Impβ), H. sapiens, from pQE60-Impβ (human) (UniProt Q14974); test: ITC
[2] = molecular target: His-tagged Importin β (Impβ), H. sapiens, from pQE60-Impβ (human, UniProt Q14974 1-876); test: ITC
[3] = molecular target: Importin β (hsImpβ) of the purified trimeric complex Impβ:Imp7:H1.11L-chick (human, UniProt Q14974 1-876); test: cross-linking
Importin β (hsImpβ) of the purified trimeric complex Impβ:Imp7:H1.11L-chick, sequence (Q14974 whole entry, one chain of several): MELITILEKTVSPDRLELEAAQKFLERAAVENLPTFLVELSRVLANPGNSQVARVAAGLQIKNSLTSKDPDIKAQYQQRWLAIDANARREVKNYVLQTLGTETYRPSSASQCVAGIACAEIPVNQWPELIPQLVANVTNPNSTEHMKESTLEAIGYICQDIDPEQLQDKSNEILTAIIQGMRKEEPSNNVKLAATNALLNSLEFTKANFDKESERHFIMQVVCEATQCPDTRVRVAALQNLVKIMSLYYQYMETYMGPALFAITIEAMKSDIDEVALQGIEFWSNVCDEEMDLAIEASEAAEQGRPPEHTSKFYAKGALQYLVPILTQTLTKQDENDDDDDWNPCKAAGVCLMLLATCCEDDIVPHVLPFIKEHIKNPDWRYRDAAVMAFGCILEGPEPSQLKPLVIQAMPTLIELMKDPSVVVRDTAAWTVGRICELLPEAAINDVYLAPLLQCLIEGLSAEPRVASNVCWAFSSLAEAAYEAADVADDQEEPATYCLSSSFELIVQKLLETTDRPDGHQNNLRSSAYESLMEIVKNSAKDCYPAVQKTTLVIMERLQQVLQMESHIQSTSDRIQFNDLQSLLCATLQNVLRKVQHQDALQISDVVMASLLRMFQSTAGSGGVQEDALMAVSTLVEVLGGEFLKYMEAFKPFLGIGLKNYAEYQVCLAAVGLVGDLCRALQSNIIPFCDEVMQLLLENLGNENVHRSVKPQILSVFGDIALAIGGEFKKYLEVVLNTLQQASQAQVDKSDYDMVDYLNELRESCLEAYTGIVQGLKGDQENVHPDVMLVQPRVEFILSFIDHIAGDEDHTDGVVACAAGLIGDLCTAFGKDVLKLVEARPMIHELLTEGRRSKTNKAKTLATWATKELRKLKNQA

His-tagged Importin β (Impβ), H. sapiens, from pQE60-Impβ (human), sequence (Q14974 whole entry): as the sequence (Q14974 whole entry, one chain of several) above
His-tagged Importin β (Impβ), H. sapiens, from pQE60-Impβ, sequence (Q14974 whole entry): as the sequence (Q14974 whole entry, one chain of several) above

Molecule: GST-tagged Imp7 (1002-1038) fragment P1024G (domain or fragment)
- fold reduction of binding against the wild-type NlB region (1002-1038) [1]: 7 fold

Molecule: GST-tagged Imp7 (1002-1038) fragment V1023T (domain or fragment)
- fold reduction of affinity against the wild-type NlB region (1002-1038) [1]: 4 fold

Molecule: GST-tagged Imp7 (1002-1038) fragment V1023E (domain or fragment)
- fold reduction of affinity against the wild-type NlB region (1002-1038) [1]: 15 fold

B1: GST-tagged Imp7 (1002-1038) fragment F1019Y (domain or fragment, X. laevis, UniProt O42480 1002-1038, looked up)
chain: RRAAHESKMIEKHGGYKYNAPVVPSTFNFGNPAPGMN
- fold reduction of affinity against the wild-type NlB region (1002-1038) [2]: ≥ 5 fold

B2: GST-tagged Imp7 (1002-1038) fragment F1028Y (domain or fragment, X. laevis, UniProt O42480 1002-1038, looked up)
chain: B1 chain with Y18F, F27Y
- fold reduction of affinity against the wild-type NlB region (1002-1038) [2]: ≥ 5 fold

B3: GST-tagged Imp7 (1002-1038) fragment F1030Y (domain or fragment, X. laevis, UniProt O42480 1002-1038, looked up)
chain: B1 chain with Y18F, F29Y
- fold reduction of affinity against the wild-type NlB region (1002-1038) [2]: ≥ 5 fold

B4: GST-tagged Imp7 (1002-1038) fragment N1029S (domain or fragment, X. laevis, UniProt O42480 1002-1038, looked up)
chain: B1 chain with Y18F, N28S
- fold increase of affinity against the wild-type NlB region (1002-1038) [2]: ~2 fold

B5: GST-tagged Imp7 (1002-1038) fragment N1032G (domain or fragment, X. laevis, UniProt O42480 1002-1038, looked up)
chain: B1 chain with Y18F, N31G
- fold increase of affinity against the wild-type NlB region (1002-1038) [2]: ~2 fold

B6: Histone H1.11L from chicken (natural protein, chicken (Gallus gallus), UniProt P08287 1-225, looked up)
chain: MSETAPAPAAEAAPAAAPAPAKAAAKKPKKAAGGAKARKPAGPSVTELITKAVSASKERKGLSLAALKKALAAGGYDVEKNNSRIKLGLKSLVSKGTLVQTKGTGASGSFRLSKKPGEVKEKAPKKKASAAKPKKPAAKKPAAAAKKPKKAVAVKKSPKKAKKPAASATKKSAKSPKKVTKAVKPKKAVAAKSPAKAKAVKPKAAKPKAAKPKAAKAKKAAAKKK
- binding result [3]: binds

B7: GST-NlB 1016-1030 (domain or fragment, X. laevis, UniProt O42480 1016-1030, looked up)
chain: GYKFNAPVVPSTFNF
- fold reduction of affinity against the NlB region (1002-1038) [2]: ~4 fold
